Reference: patent US20260139048A1 (NANJING LEGEND BIOTECH, published 2026)
Like-named read-outs stand apart in the source and are kept apart here. Each block holds one binder with its values, some of them ahead of it.

Legend:
[1] = target: T1, TIGIT on TIGIT-over expressing NFAT-Luc/Jurkat effector cells (GenScript reporter cell line) (UniProt Q495A1 22-244, limits assumed); assay: cell-based or functional assay
T1 sequence (looked up): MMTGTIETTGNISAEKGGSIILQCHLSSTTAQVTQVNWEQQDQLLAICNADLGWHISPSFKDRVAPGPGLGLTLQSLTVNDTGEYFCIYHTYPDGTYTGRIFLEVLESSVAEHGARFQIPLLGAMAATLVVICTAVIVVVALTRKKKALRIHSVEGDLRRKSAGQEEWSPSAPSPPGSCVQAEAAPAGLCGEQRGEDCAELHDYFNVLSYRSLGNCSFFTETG

[2] = target: T2, human TIGIT expressed on CHO-K1 cells (human, UniProt Q495A1 22-244); assay: flow cytometry on CHO-K1 cells expressing human TIGIT
T2 construct: whole, on cells; also called human TIGIT-CHO-K1 cells; human TIGIT over-expressing cell line
T2 sequence (looked up): T1 sequence (looked up)

[3] = target: T3, cynomolgus TIGIT expressed on CHO-K1 cells (cynomolgus, UniProt A0A7N9I9V4 89-312); assay: flow cytometry on CHO-K1 cells expressing cynomolgus TIGIT
T3 construct: whole, on cells; also called cynomolgus TIGIT over-expressing cell line
T3 sequence (A0A7N9I9V4 entry or part of it): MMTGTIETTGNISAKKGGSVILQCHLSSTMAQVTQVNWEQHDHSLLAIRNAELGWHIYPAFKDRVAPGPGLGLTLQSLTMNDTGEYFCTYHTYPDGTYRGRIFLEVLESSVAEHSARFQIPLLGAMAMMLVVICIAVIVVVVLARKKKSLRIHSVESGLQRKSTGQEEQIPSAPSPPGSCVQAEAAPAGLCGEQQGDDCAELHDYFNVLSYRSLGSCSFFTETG

His-tagged human TIGIT [4] = target: T4, His-tagged human TIGIT (human, UniProt Q495A1 22-141); assay: SPR (Biacore T200), antibody captured, His-tagged TIGIT analyte
T4 construct: SPR analyte; also called human TIGIT protein; not shown: His tag
T4 sequence: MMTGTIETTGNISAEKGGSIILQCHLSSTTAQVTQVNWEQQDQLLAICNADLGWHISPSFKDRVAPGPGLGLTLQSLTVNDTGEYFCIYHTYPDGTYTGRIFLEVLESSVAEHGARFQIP

[5] = target: T5, His-tagged cynomolgus TIGIT (cynomolgus, UniProt A0A7N9I9V4 89-209); assay: as above
T5 construct: SPR analyte; also called cynomolgus TIGIT protein; not shown: His tag
T5 sequence (A0A7N9I9V4 entry or part of it): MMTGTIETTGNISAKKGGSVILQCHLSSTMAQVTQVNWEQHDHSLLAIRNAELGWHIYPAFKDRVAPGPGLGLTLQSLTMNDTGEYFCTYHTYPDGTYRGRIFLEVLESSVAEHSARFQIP

[6] = target: T2, human TIGIT expressed on CHO-K1 cells; assay: flow cytometry competition: biotinylated CD155-Fc on human TIGIT-CHO-K1 cells
[7] = target: T1, TIGIT on TIGIT-over expressing …; assay: cell-based or functional assay; remark: listed apart in the source
[8] = target: T2, human TIGIT expressed on CHO-K1 cells; assay: flow cytometry on CHO-K1 cells expressing human TIGIT; remark: listed apart in the source
[9] = target: T3, cynomolgus TIGIT expressed on CHO-K1 …; assay: flow cytometry on CHO-K1 cells expressing cynomolgus TIGIT; remark: listed apart in the source
His-tagged human TIGIT [10] = target: T4, His-tagged human TIGIT; assay: SPR (Biacore T200), antibody captured, His-tagged TIGIT analyte; remark: listed apart in the source
[11] = target: T5, His-tagged cynomolgus TIGIT; assay: as above; remark: listed apart in the source
[12] = target: T2, human TIGIT expressed on CHO-K1 cells; assay: flow cytometry competition: biotinylated CD155-Fc on human TIGIT-CHO-K1 cells; remark: listed apart in the source

Bottom (RLU) [1]: 10400 RLU
EC50 [1]: 31.3 nM
Top (RLU) [1]: 50600 RLU
EC50 [2]: 0.76 nM
EC50 [3]: 1.45 nM
Kd (His-tagged human TIGIT [4]): 0.22 nM
koff (His-tagged human TIGIT [4]): 9.5e-05 s⁻¹
kon (His-tagged human TIGIT [4]): 430000 M⁻¹ s⁻¹
Kd [5]: 4.4 nM
koff [5]: 0.0011 s⁻¹
kon [5]: 260000 M⁻¹ s⁻¹
IC50 [6]: 1.23 nM
B1: TIGIT-18 chimeric antibody (antibody, human IgG1, kappa, V domains shown)
VH: QVQLQQPGAELVRPGASVKLSCKASGYSFTSYWMNWVKQRPGQGHEWIGMIHLSNSETRLNQNFLDKATLTVDKSSSTVYLQLSSPTSEDSAVYYCARERDYYGSSYFDYWGQGTTLTVSS
VL: DIVMTQSPASLVVSLGQRATISCRTSQSVSTSSYSYMHWYQQKPGQPPKLLIKNASNLESGVPARFSASGSGTDFTLNIHPVEEEDAATYYCQHSWEIPRTFGGGTKLEIKR
notes: Full-length chimeric IgG1 kappa

Bottom (RLU) [1]: 4520 RLU
EC50 [1]: > 100 nM
Top (RLU) [1]: 11700 RLU
EC50 [2]: 0.55 nM
Kd (His-tagged human TIGIT [4]): 6.6 nM
koff (His-tagged human TIGIT [4]): 0.014 s⁻¹
kon (His-tagged human TIGIT [4]): 2.2e+06 M⁻¹ s⁻¹
Kd [5]: 29 nM
koff [5]: 0.012 s⁻¹
kon [5]: 420000 M⁻¹ s⁻¹
IC50 [6]: 0.82 nM
B2: TIGIT-100 chimeric antibody (antibody, human IgG1, kappa, V domains shown)
VH: QVQLQQPGPELVKPGASVKISCKASGYSFTDYNMNWVKQSNGKSLEWIGVINPNSGTDNYNQKFKGKATLTVDQSSSTAYMQLNSLTSEDSAVYFCARGVYFGNYFDSWGQGTTLTVSS
VL: DIVMTQSPASLSASVGETVTITCRASENIYSSLAWYQQKQGKSPQLLVFNAKTLTEGVPSRFSGSGSGTQFSLKINSLQPEDFGSYYCQHHYGAPWTFGGGTKLEIKR
notes: as for B1

Bottom (RLU) [1]: 11800 RLU
EC50 [1]: > 100 nM
Top (RLU) [1]: 14200 RLU
EC50 [2]: 8.43 nM
EC50 [3]: 7.68 nM
Kd (His-tagged human TIGIT [4]): 0.17 nM
koff (His-tagged human TIGIT [4]): 7.4e-05 s⁻¹
kon (His-tagged human TIGIT [4]): 440000 M⁻¹ s⁻¹
Kd [5]: 0.28 nM
koff [5]: 6.1e-05 s⁻¹
kon [5]: 220000 M⁻¹ s⁻¹
IC50 [6]: 13.9 nM
B3: TIGIT-52 chimeric antibody (antibody, human IgG1, kappa, V domains shown)
VH: EVQLVESGGGLVEPGGSLTLSCVASGFTFSSFAMSWVRQTPEKRLEWVATISNGGSYTYYPDTVKGRFTISRDNAKNTLFLQMSSLRSEDTAMYYCARPYYGTTYGYYFDFWGQGTTLTVSS
VL: QIVLTQSPASLAVSLGQRATISCRASESVDRNGNSFMHWYQQKPGQPPKLLIYLASNLESGVPARFSGSGSRTDFTLTIDPVEADDAATYYCQQNNEDPLTFGAGTKLELKR
notes: as for B1

Bottom (RLU) [1]: 10500 RLU
EC50 [1]: 15.6 nM
Top (RLU) [1]: 51700 RLU
Bottom (RLU) [7]: 52900 RLU
EC50 [7]: 11.1 nM
Top (RLU) [7]: 163000 RLU
EC50 [2]: 0.46 nM
EC50 [8]: 0.65 nM
EC50 [9]: 43 nM
Kd (His-tagged human TIGIT [4]): 0.11 nM
koff (His-tagged human TIGIT [4]): 0.00013 s⁻¹
kon (His-tagged human TIGIT [4]): 1.2e+06 M⁻¹ s⁻¹
Kd [5]: 280 nM
koff [5]: 0.044 s⁻¹
kon [5]: 160000 M⁻¹ s⁻¹
Kd (His-tagged human TIGIT [10]): 0.051 nM
koff (His-tagged human TIGIT [10]): 5.1e-05 s⁻¹
kon (His-tagged human TIGIT [10]): 1e+06 M⁻¹ s⁻¹
Kd [11]: 470 nM
koff [11]: 0.063 s⁻¹
kon [11]: 130000 M⁻¹ s⁻¹
IC50 [6]: 0.81 nM
IC50 [12]: 0.62 nM
B4: Hu1217-2-2 (anti-TIGIT positive control antibody) (antibody, V domains shown)
VH: EVQLVESGGGLVQPGGSLRLSCAASGFTFSDYYMYWVRQAPGKGLEWVAYITKGGGSTYYPDSVKGRFTISRDNAKNTLYLQMNSLRAEDTAVYYCARQTNYDFTMDYWGQGTLVTVSS
VL: EIVMTQSPATLSVSPGERATLSCKASQDVGTSVAWYQQKPGQAPRLLIYWASARHTGIPARFSGSGSGTEFTLTISSLQSEDFAVYYCQQYSSYPLTFGGGTKVEIK

Bottom (RLU) [1]: 11200 RLU
EC50 [1]: 46.8 nM
Top (RLU) [1]: 28700 RLU
EC50 [2]: 1.12 nM
EC50 [3]: 1.92 nM
Kd (His-tagged human TIGIT [4]): 2.5 nM
koff (His-tagged human TIGIT [4]): 0.00062 s⁻¹
kon (His-tagged human TIGIT [4]): 250000 M⁻¹ s⁻¹
Kd [5]: 3.4 nM
koff [5]: 0.00049 s⁻¹
kon [5]: 140000 M⁻¹ s⁻¹
IC50 [6]: 2.32 nM
B5: TIGIT-63 chimeric antibody (antibody, human IgG1, kappa, V domains shown)
VH: DVQLVESGGGLVQPGGSLSLSCAASGFTFTDYYMNWVRQPPGKALEWLGFIRNKANGYTTEYSASVKGRFTISRDNSQSILYLQMNALRAEDSATYYCARSTAWYFDVWGTGTTLTVSS
VL: DIQMTQSPASLSASVGGTVTITCRASEHIYSYLAWYQQKQGKSPQLLVYNAKTLAEGVPSRFSGSGSGTQFSLKINSLQPKDFGSYYCQHHYGNPLTFGAGTKLELKR
notes: as for B1
